Laboratory results from US20250041325A1.

Target: CXCR4 receptor on the surface of RIL-175 murine HCC cells (murine (endogenous on murine RIL-175 HCC cells)) (UniProt P70658)
Experiment: cell-based or functional assay

UniProt P70658, sequence (P70658 whole entry): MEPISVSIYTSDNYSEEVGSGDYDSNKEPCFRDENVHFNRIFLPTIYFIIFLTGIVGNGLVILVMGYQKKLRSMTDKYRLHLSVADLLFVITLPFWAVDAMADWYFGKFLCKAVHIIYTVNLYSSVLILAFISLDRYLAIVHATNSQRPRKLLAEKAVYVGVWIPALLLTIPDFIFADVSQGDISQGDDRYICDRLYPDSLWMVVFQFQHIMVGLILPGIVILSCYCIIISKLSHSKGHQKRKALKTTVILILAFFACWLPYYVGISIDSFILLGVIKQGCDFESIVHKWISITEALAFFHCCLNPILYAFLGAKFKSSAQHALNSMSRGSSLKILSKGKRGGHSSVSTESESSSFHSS

With “CTCE-9908 peptide conjugated to DSPE-PEG and displayed on polymer-lipid hybrid mRNA nanoparticles (DSPE-PEG-CTCE; CTCE-mRNA NPs)” the cellular uptake in RIL-175 cells (flow cytometry of EGFP), 5% CTCE-EGFP NPs versus 5% SCP-EGFP NPs (scrambled peptide, SEQ ID NO: 2) was > 15 fold and the mean fluorescence intensity of EGFP in transfected RIL-175 cells (flow cytometry), CTCE-EGFP NPs versus SCP-EGFP NPs was 4.5 fold.
